B1: full-length wild-type LytA (N-acetylmuramoyl-L-alanine amidase, major autolysin of Streptococcus pneumoniae) (enzyme, Streptococcus pneumoniae TIGR4, UniProt P06653 1-318, looked up)
chain: MEINVSKLRTDLPQVGVQPYRQVHAHSTGNPHSTVQNEADYHWRKDPELGFFSHIVGNGCIMQVGPVDNGAWDVGGGWNAETYAAVELIESHSTKEEFMTDYRLYIELLRNLADEAGLPKTLDTGSLAGIKTHEYCTNNQPNNHSDHVDPYPYLAKWGISREQFKHDIENGLTIETGWQKNDTGYWYVHSDGSYPKDKFEKINGTWYYFDSSGYMLADRWRKHTDGNWYWFDNSGEMATGWKKIADKWYYFNEEGAMKTGWVKYKDTWYYLDAKEGAMVSNAFIQSADGTGWYYLKPDGTLADKPEFTVEPDGLITVK
B2: recombinant full-length His-tagged LytA, wt-LytA(N-His6) (enzyme, Streptococcus pneumoniae TIGR4, UniProt P06653 1-318, looked up)
chain: B1 chain

Key:
Experiment in all cases: SAXS
[1] = target: choline-binding domain of wt-LytA (LytA^CBD) (Streptococcus pneumoniae TIGR4)
[2] = target: full-length prophage LytA (prophage of Streptococcus pneumoniae Hungary 19A-6)
SAXS = target: the molecule itself

Molecule | stoichiometry N (SAXS) | further results
choline-binding domain of wt-LytA (LytA^CBD) (domain or fragment) |  | stoichiometry N [1]: 2
full-length prophage LytA (enzyme) |  | stoichiometry N [2]: 2
B1 | 2 | 
B2 | 2 | 

— article PMC3950521 (mBio, 2014)
